The target in the test is pancreatic polypeptide (UniProt P01298).

On to APLEPVYPGDNATPEQMAQYAADLRRYINMLTRPRY [pancreatic polypeptide], for which the LDH release assay, % cell death of SH-SY5Y cells after 30 h with 10 μM PP oligomers formed with heparin (PP incubated without heparin: no significant LDH release) is 35%.

For the origin of these results see publication PMC4372375.
